The assay deals with human catalytic domain of MMP-14 (human).

Chain of human N-terminal domain of tissue inhibitor of metalloproteinase-2 (domain or fragment) (P16035 27-220): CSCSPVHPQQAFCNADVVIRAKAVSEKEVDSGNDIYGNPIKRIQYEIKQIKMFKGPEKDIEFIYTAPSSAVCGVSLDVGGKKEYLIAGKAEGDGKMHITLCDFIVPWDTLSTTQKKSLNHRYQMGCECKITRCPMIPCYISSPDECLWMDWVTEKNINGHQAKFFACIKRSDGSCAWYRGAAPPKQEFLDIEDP

On to “human N-terminal domain of tissue inhibitor of metalloproteinase-2 (domain or fragment)”, for which the IC50 of inhibition of hydrolysis of the FRET peptide substrate M-2350 (1 nM human cdMMP-14, 1 μM substrate) was determined as 3 nM.
